In publication PMC10073093, “TGFBI remodels adipose metabolism by regulating the Notch-1 signaling pathway” (Experimental & Molecular Medicine, 2023) one finds EC50 and Kd data, which are given here for 2 molecules.

The target in test [1] is T1, Recombinant Notch-1 protein (UniProt P46531 19-2555).
T1 chain: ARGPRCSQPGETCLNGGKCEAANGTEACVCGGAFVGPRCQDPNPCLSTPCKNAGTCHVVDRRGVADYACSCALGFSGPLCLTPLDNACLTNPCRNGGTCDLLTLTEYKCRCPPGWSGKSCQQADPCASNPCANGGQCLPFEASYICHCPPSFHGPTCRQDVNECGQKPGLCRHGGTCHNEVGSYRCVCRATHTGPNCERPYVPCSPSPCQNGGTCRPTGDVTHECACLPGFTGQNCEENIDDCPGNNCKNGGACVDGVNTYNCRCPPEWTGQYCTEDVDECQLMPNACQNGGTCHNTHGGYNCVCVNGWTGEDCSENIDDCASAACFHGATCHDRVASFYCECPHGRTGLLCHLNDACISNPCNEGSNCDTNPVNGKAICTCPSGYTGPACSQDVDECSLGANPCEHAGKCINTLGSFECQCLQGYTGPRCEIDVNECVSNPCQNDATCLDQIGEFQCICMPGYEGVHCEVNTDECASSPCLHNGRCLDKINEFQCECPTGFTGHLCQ
The test can be described thus: ELISA.

Test [2] has as its target T2, Recombinant TGFBI (transforming growth factor-beta-induced protein) (UniProt Q15582 24-683).
T2 construct: Transforming growth factor-beta-induced protein (TGFBI, βig-H3); cDNA inserted into the EcoRV and EcoRI sites of pET-29b; also called βig-H3; keratoepithelin; source: E. coli, IPTG-induced, purified (Ni-NTA column, dialyzed)
T2 sequence (looked up): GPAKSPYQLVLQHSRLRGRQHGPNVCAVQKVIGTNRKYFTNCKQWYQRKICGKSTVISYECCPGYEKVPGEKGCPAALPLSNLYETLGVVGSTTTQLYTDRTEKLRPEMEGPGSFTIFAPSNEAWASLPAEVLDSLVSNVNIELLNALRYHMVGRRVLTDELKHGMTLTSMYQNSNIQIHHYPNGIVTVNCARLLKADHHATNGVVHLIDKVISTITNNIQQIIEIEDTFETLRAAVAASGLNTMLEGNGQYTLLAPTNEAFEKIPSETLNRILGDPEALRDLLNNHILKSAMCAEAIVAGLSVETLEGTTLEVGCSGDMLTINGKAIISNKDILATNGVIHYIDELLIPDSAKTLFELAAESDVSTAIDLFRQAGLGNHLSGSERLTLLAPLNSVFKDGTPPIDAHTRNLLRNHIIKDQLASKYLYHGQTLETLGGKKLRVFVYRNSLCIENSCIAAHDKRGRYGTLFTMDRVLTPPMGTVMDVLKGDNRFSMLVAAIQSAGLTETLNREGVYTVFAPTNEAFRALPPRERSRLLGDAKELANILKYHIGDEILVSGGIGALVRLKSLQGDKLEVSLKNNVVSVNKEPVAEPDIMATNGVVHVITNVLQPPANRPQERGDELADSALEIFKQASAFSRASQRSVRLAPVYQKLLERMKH
The test can be described thus: ELISA; recombinant Notch-1 (2 g/ml as printed, in PBS) coated on 96-well polystyrene plates at RT overnight; blocked with 1% BSA in PBS; Jagged-1 or TGFBI added at 0 to 2000 ng/ml; biotinylated antibodies, streptavidin-HRP, OD 450 nm; Kd (nM) = ED50 (ng/mL)/molecular weight of binding protein. The note with it: both partners purified. (ELISA stands for enzyme-linked immunosorbent assay.)

B1: Recombinant TGFBI (transforming growth factor-beta-induced protein) (natural protein)
chain: GPAKSPYQLVLQHSRLRGRQHGPNVCAVQKVIGTNRKYFTNCKQWYQRKICGKSTVISYECCPGYEKVPGEKGCPAALPLSNLYETLGVVGSTTTQLYTDRTEKLRPEMEGPGSFTIFAPSNEAWASLPAEVLDSLVSNVNIELLNALRYHMVGRRVLTDELKHGMTLTSMYQNSNIQIHHYPNGIVTVNCARLLKADHHATNGVVHLIDKVISTITNNIQQIIEIEDTFETLRAAVAASGLNTMLEGNGQYTLLAPTNEAFEKIPSETLNRILGDPEALRDLLNNHILKSAMCAEAIVAGLSVETLEGTTLEVGCSGDMLTINGKAIISNKDILATNGVIHYIDELLIPDSAKTLFELAAESDVSTAIDLFRQAGLGNHLSGSERLTLLAPLNSVFKDGTPPIDAHTRNLLRNHIIKDQLASKYLYHGQTLETLGGKKLRVFVYRNSLCIENSCIAAHDKRGRYGTLFTMDRVLTPPMGTVMDVLKGDNRFSMLVAAIQSAGLTETLNREGVYTVFAPTNEAFRALPPRERSRLLGDAKELANILKYHIGDEILVSGGIGALVRLKSLQGDKLEVSLKNNVVSVNKEPVAEPDIMATNGVVHVITNVLQPPANRPQERGDELADSALEIFKQASAFSRASQRSVRLAPVYQKLLERMKH
modifications: Species, supplier and limits not stated. Human assumed (mouse Q01705 is possible). Limits follow the usual commercial recombinant Notch-1 ectodomain fragment (N-terminal EGF repeats including ligand-binding EGF 11-12), recalled rather than printed; any Fc carrier omitted.
Turning to B1, the EC50 (commonly the concentration giving half of the maximal effect) in test [1] came out at 0.452 µg/mL.

B2: Recombinant Notch-1 protein (receptor)
chain: ARGPRCSQPGETCLNGGKCEAANGTEACVCGGAFVGPRCQDPNPCLSTPCKNAGTCHVVDRRGVADYACSCALGFSGPLCLTPLDNACLTNPCRNGGTCDLLTLTEYKCRCPPGWSGKSCQQADPCASNPCANGGQCLPFEASYICHCPPSFHGPTCRQDVNECGQKPGLCRHGGTCHNEVGSYRCVCRATHTGPNCERPYVPCSPSPCQNGGTCRPTGDVTHECACLPGFTGQNCEENIDDCPGNNCKNGGACVDGVNTYNCRCPPEWTGQYCTEDVDECQLMPNACQNGGTCHNTHGGYNCVCVNGWTGEDCSENIDDCASAACFHGATCHDRVASFYCECPHGRTGLLCHLNDACISNPCNEGSNCDTNPVNGKAICTCPSGYTGPACSQDVDECSLGANPCEHAGKCINTLGSFECQCLQGYTGPRCEIDVNECVSNPCQNDATCLDQIGEFQCICMPGYEGVHCEVNTDECASSPCLHNGRCLDKINEFQCECPTGFTGHLCQ
modifications: Species, supplier and limits not stated. Human assumed (mouse Q01705 is possible). Limits follow the usual commercial recombinant Notch-1 ectodomain fragment (N-terminal EGF repeats including …)
As for B2, in test [2], the equilibrium dissociation constant (Kd) (in general, the concentration at which binding is half-saturated) was 3.18 nM.
